Results on one molecule are retold here after article PMC3258846 (Molecular Cell, 2011).

In experiment [1] the target is GST-ASCC3-B (human, UniProt Q8N3C0 401-1300). As to the kind of experiment: pull-down.
Experiment [2] has as its target GST-ASCC3-C (human, UniProt Q8N3C0 1301-2202). As to the kind of experiment: pull-down.

GST-ASCC3-C, sequence (Q8N3C0 1301-2202): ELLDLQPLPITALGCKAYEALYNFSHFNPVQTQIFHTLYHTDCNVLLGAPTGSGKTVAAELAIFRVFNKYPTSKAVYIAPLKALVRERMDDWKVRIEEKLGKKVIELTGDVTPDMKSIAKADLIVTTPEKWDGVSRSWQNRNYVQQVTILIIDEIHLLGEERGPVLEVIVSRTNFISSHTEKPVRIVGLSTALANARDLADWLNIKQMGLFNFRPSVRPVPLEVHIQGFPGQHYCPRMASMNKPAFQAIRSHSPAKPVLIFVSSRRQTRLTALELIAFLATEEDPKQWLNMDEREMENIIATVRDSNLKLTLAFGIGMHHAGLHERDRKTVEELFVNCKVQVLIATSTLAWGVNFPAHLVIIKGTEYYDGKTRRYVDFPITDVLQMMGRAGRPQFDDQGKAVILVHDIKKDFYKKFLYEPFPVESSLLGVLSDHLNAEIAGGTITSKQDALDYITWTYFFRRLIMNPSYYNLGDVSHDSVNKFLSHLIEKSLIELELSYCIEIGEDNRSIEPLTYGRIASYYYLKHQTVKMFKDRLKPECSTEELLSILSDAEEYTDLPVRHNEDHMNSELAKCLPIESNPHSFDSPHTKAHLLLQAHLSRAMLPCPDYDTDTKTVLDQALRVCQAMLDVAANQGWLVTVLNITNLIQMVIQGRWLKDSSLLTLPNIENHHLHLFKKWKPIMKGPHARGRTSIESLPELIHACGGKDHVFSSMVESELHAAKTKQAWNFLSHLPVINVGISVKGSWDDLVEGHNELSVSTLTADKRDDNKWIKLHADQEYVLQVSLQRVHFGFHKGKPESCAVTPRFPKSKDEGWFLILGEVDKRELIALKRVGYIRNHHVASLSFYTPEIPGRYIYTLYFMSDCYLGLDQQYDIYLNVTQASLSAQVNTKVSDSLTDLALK
GST-ASCC3-B, sequence (Q8N3C0 401-1300): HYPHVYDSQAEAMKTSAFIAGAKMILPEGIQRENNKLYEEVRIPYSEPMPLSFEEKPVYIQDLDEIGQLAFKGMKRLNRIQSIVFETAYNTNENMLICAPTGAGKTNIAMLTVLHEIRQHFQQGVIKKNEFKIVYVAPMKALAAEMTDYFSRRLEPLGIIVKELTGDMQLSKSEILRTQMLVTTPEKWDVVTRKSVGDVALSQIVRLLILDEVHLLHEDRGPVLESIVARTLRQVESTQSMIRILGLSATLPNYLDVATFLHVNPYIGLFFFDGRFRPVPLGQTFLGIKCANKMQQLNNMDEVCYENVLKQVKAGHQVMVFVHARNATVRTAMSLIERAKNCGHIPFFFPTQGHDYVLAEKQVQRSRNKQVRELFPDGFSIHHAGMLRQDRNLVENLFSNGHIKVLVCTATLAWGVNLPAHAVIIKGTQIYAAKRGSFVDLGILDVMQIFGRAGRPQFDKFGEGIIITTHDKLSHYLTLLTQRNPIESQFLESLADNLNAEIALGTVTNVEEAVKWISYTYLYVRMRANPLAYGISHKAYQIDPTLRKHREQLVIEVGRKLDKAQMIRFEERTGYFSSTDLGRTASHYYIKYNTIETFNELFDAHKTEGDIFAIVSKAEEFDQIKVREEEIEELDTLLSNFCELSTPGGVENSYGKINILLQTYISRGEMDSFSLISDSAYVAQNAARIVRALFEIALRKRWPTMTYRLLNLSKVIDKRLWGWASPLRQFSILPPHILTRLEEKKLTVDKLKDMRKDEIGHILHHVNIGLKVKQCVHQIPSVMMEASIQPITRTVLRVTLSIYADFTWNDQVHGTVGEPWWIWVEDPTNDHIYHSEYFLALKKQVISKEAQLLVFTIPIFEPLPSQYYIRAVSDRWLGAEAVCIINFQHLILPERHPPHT

B1: His6-ALKBH3 (enzyme, human, UniProt Q96Q83 1-286, looked up)
chain: MEEKRRRARVQGAWAAPVKSQAIAQPATTAKSHLHQKPGQTWKNKEHHLSDREFVFKEPQQVVRRAPEPRVIDREGVYEISLSPTGVSRVCLYPGFVDVKEADWILEQLCQDVPWKQRTGIREDITYQQPRLTAWYGELPYTYSRITMEPNPHWHPVLRTLKNRIEENTGHTFNSLLCNLYRNEKDSVDWHSDDEPSLGRCPIIASLSFGATRTFEMRKKPPPEENGDYTYVERVKIPLDHGTLLIMEGATQADWQHRVPKEYHSREPRVNLTFRTVYPDPRGAPW
Turning to B1, the binding result in experiment [1] and in experiment [2] was “binds” in each case.
